From patent US20090149381

Target: human recombinant PEDF (pigment epithelium-derived factor) (UniProt P36955)
Sequence (P36955 20-418): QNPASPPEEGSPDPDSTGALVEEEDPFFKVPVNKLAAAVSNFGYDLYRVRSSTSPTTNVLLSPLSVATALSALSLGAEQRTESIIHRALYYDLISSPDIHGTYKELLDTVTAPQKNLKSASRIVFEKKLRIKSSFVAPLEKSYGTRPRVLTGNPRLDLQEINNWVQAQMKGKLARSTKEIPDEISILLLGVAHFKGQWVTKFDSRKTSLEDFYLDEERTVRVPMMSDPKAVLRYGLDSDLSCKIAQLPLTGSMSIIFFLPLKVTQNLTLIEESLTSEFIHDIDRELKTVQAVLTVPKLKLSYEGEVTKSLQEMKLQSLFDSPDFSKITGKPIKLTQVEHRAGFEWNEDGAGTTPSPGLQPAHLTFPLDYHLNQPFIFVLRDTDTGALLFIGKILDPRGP

human recombinant MMP-9, sequence (chain, as listed by the source): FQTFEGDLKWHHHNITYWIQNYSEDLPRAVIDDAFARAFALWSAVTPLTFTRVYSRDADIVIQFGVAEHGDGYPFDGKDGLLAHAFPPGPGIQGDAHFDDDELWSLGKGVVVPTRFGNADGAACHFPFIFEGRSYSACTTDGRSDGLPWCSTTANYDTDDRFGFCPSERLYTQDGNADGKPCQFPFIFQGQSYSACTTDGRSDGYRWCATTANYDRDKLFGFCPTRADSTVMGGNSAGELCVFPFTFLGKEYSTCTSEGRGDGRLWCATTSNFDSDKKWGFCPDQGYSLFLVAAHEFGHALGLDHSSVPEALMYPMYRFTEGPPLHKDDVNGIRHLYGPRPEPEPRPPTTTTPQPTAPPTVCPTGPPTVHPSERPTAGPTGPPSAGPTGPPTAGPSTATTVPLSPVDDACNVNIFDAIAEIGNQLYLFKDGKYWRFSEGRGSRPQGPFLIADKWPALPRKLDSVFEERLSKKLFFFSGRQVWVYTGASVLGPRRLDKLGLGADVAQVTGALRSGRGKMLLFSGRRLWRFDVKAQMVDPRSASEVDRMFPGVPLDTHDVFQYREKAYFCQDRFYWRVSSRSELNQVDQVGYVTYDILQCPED

## activated MMP-2
  PEDF fragments observed by SDS-PAGE after protease treatment: resulted in the generation of multiple PEDF fragments that were observed by SDS-PAGE. These fragments had estimated relative molecular weights of 44 and 42 KDa

## MMP-7
  PEDF fragments observed by SDS-PAGE after protease treatment: resulted in the generation of multiple PEDF fragments that were observed by SDS-PAGE. These fragments had estimated relative molecular weights of 44 and 42 KDa

## human recombinant MMP-9
  PEDF fragments observed by SDS-PAGE after protease treatment: resulted in the generation of multiple PEDF fragments that were observed by SDS-PAGE. These fragments had estimated relative molecular weights of 44 and 42 KDa
